Measured values reported in US10562947B2, “Compositions and methods for preventing or treating diseases, conditions or processes characterized by aberrant fibroblast proliferation and extracellular matrix deposition” (MOERAE MATRIX, INC., priority 2011, dated 2020).
Where a SMILES comes first, the peptide text is derived from it.

Legend:
Assay in all cases: Kinase Profiling Assay
Assay type in all cases: biochemical
TSSK2(h) = target: T1, TSSK2(h) (Homo sapiens, UniProt Q96PF2); conditions: 100 μM peptide
T1 sequence (Q96PF2 1-358): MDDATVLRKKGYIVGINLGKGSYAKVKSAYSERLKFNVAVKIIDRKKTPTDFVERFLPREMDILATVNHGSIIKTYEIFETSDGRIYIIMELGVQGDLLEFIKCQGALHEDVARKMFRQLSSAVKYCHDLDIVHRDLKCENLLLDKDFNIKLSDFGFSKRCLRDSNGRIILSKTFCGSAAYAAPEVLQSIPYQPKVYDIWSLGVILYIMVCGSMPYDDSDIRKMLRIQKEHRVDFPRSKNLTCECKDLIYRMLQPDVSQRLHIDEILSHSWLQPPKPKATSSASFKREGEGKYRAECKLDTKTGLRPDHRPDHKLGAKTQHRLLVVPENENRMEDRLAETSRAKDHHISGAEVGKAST
How it was run: (§1)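 Duplicate activity readings per kinase; peptide inhibitors of MK2 profiled against 266 human kinases for selectivity.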

PDGFRα(h) = PDGFRα(h) (Homo sapiens, UniProt P16234); conditions: 100 μM peptide
How it was run: as §1

PRAK(h) = target: T2, PRAK(h) (Homo sapiens, UniProt Q8IW41); conditions: 100 μM peptide
T2 construct: purchased Millipore (IC50 Profiler Express service)
T2 sequence (Q8IW41 1-473): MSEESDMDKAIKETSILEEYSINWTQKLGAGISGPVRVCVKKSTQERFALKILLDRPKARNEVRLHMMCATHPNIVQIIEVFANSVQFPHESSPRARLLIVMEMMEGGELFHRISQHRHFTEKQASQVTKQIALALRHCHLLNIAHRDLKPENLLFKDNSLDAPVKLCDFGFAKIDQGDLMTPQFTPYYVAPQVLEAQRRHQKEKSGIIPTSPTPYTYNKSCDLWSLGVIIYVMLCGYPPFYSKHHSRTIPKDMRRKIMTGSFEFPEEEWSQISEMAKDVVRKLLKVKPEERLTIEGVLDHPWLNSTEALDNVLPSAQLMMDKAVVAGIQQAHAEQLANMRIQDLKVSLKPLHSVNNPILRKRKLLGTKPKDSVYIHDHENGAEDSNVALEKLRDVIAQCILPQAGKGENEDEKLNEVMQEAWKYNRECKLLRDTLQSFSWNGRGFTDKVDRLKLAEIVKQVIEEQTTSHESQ
How it was run: as §1

TrkB(h) = TrkB(h) (Homo sapiens, UniProt Q16620); conditions: for TrkB(h) % activity: 100 μM peptide
How it was run: as §1

PKCμ(h) = target: T3, PKCμ(h) (Homo sapiens, UniProt Q15139); conditions: 100 μM peptide
T3 construct: purchased Millipore (IC50 Profiler Express service)
T3 sequence (Q15139 1-912): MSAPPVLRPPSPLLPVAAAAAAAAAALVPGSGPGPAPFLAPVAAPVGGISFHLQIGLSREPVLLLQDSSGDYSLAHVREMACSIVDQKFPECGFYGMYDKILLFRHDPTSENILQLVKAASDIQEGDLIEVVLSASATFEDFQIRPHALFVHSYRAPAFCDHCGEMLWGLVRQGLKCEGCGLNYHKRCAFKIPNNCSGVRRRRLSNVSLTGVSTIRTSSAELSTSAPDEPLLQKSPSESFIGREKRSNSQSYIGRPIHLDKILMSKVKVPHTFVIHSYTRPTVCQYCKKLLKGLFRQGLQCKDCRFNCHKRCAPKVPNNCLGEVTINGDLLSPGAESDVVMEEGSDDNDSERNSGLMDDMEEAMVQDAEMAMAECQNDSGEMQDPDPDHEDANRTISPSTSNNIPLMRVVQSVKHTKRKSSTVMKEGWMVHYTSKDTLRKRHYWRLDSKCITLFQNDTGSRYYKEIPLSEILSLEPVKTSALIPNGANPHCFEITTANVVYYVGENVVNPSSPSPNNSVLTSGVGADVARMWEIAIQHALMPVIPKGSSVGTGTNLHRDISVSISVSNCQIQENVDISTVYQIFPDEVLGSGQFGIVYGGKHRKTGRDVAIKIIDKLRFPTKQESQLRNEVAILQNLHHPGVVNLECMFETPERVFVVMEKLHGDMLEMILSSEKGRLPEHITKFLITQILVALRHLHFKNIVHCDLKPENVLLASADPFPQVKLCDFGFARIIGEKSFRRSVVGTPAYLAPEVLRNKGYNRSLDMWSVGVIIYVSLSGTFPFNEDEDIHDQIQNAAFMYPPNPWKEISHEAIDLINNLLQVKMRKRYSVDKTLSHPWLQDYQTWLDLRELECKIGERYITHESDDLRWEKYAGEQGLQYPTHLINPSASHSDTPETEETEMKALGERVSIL
How it was run: as §1

cSRC(h) = cSRC(h) (Homo sapiens, UniProt P12931); conditions: 100 μM peptide
How it was run: as §1

IRR(h) = target: T4, IRR(h) (Homo sapiens, UniProt P14616); conditions: 100 μM peptide
T4 construct: purchased Millipore
T4 sequence (P14616 27-1297): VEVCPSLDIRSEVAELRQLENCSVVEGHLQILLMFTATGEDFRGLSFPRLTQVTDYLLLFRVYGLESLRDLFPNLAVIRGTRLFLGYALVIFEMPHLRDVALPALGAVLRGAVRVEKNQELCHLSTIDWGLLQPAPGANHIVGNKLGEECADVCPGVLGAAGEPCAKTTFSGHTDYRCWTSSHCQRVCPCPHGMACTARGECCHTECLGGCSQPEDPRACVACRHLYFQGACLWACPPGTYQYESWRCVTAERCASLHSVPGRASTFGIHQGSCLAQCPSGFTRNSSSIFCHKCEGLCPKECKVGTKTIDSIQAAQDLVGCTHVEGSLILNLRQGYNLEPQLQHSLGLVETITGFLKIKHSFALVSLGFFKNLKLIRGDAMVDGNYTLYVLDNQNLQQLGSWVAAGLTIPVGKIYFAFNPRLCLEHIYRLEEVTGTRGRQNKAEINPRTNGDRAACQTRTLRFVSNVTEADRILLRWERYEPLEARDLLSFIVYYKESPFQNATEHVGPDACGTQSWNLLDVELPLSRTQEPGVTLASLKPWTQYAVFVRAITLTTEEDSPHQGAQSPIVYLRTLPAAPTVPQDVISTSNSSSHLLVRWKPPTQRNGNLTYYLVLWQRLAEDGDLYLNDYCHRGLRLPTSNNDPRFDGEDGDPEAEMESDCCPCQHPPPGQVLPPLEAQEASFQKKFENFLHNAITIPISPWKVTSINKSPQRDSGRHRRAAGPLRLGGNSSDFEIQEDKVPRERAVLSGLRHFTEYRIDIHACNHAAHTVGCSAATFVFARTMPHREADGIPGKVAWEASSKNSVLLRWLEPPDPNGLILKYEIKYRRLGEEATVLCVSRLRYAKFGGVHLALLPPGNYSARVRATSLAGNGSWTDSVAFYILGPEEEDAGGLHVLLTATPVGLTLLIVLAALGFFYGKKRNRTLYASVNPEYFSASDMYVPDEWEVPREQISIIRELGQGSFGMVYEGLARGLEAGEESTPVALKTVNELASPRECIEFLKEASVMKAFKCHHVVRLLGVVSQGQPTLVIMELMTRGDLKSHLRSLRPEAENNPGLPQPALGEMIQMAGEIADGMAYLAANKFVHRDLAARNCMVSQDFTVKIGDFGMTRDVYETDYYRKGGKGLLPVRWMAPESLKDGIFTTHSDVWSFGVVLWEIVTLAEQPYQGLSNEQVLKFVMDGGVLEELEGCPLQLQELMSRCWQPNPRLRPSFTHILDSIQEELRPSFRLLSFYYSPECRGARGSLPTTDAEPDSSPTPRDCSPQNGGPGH
How it was run: as §1

FGFR1(V561M)(h) = FGFR1(V561M)(h) (Homo sapiens, UniProt P11362, V561M); conditions: 100 μM peptide
Sequence of FGFR1(V561M)(h) (P11362 22-822 V561M): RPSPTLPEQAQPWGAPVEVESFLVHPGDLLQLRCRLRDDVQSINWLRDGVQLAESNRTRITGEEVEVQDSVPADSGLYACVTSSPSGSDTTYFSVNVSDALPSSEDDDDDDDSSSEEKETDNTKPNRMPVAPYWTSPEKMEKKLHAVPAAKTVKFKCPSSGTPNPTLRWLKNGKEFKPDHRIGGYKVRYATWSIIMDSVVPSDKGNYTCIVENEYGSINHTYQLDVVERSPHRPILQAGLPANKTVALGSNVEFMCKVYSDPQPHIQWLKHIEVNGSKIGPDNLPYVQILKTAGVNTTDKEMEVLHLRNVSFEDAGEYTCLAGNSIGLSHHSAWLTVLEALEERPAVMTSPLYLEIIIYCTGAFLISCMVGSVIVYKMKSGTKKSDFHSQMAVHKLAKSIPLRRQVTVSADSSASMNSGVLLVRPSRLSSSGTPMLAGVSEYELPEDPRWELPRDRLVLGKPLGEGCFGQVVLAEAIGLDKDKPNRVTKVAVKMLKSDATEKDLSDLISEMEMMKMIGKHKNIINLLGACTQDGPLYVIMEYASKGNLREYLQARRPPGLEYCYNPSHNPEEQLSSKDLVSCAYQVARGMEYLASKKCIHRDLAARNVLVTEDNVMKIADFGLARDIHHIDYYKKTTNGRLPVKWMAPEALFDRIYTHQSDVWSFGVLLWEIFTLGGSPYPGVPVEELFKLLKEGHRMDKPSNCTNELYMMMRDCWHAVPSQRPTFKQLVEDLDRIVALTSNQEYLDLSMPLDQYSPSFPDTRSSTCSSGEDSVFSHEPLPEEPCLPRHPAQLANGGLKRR
How it was run: as §1

ZIPK(h) = ZIPK(h) (Homo sapiens, UniProt O43293); conditions: 100 μM peptide
How it was run: as §1

PAK2(h) = PAK2(h) (Homo sapiens, UniProt Q13177); conditions: 100 μM peptide
Sequence of PAK2(h) (Q13177 whole entry): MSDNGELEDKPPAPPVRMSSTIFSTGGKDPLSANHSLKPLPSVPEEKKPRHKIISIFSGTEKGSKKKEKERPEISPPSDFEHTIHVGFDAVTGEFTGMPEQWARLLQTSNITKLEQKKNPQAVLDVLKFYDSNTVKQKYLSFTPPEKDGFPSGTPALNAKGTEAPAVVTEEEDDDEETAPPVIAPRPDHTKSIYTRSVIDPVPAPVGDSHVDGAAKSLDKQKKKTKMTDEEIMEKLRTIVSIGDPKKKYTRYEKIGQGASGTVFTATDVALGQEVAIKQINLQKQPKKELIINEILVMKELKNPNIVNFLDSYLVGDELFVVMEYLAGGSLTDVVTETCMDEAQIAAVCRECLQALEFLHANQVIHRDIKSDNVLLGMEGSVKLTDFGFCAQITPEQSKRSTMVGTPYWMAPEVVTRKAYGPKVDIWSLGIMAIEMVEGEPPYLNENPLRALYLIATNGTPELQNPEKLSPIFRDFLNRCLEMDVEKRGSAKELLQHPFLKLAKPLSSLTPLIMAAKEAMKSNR
How it was run: as §1

PKCβII(h) = PKCβII(h) (Homo sapiens, UniProt P05771); conditions: 100 μM peptide
Sequence of PKCβII(h) (P05771 1-673 isoform P05771-2): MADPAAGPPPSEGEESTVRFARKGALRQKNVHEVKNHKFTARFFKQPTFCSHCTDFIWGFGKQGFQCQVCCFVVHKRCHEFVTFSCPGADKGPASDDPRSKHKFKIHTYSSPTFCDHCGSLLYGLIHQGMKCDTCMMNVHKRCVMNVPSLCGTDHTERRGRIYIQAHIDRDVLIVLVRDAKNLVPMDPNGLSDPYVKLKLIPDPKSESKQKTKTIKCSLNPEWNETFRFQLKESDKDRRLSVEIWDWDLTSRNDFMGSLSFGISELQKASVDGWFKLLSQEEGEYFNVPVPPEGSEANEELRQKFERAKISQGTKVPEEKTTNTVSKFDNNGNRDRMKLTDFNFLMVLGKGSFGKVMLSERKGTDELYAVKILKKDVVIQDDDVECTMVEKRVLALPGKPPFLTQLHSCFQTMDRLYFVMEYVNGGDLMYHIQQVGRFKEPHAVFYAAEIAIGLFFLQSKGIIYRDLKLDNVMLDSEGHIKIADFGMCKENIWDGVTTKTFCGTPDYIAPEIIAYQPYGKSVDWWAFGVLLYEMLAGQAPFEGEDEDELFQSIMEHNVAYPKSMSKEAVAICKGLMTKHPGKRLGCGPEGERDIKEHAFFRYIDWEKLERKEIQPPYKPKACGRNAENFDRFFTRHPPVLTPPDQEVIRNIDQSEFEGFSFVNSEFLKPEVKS
How it was run: as §1

Ros(h) = target: T5, Ros(h) (Homo sapiens, UniProt P08922); conditions: 100 μM peptide
T5 construct: purchased Millipore (IC50 Profiler Express service)
How it was run: as §1

FGFR2(h) = FGFR2(h) (Homo sapiens, UniProt P21802); conditions: 100 μM peptide
How it was run: as §1

ROCK-I(h) = target: T6, ROCK-I(h) (Homo sapiens, UniProt Q13464); conditions: 100 μM peptide
T6 construct: purchased Millipore (IC50 Profiler Express service)
T6 sequence (Q13464 whole entry): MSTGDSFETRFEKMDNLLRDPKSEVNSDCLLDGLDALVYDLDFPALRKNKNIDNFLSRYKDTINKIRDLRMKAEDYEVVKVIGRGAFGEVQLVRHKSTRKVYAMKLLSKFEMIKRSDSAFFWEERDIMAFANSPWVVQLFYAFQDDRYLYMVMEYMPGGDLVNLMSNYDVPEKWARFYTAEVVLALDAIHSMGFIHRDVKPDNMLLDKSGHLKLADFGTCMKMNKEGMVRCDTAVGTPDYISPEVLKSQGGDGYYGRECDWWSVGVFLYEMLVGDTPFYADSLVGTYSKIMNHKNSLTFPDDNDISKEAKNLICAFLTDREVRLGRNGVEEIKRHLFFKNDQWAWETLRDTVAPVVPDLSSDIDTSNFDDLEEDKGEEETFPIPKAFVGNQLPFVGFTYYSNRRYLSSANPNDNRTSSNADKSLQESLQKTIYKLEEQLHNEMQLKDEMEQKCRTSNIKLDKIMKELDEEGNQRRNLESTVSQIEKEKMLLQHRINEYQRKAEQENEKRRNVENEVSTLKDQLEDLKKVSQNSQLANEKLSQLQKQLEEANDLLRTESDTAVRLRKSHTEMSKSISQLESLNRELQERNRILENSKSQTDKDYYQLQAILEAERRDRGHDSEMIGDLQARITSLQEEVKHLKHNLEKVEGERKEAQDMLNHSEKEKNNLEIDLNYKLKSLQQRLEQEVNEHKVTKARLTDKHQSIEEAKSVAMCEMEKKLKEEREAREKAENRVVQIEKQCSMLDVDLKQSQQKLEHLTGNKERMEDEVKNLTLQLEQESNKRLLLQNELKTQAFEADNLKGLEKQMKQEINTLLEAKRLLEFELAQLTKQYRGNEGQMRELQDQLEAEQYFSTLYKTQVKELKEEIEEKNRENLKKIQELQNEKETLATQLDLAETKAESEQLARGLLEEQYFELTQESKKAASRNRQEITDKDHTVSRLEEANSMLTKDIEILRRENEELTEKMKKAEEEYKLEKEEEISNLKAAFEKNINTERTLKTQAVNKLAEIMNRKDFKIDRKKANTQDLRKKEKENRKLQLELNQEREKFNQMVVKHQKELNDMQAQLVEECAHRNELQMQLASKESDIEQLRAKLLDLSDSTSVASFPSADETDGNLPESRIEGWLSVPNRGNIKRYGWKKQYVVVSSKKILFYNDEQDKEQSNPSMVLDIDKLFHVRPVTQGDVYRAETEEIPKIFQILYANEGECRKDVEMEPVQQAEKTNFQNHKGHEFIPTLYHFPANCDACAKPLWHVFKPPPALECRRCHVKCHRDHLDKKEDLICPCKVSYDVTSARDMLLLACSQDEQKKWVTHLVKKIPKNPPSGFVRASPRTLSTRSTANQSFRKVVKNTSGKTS
How it was run: as §1

CSK(h) = CSK(h) (Homo sapiens, UniProt P41240); conditions: 100 μM peptide
How it was run: as §1

Src(1-530)(h) = target: T7, Src(1-530)(h) (Homo sapiens, UniProt P12931); conditions: 100 μM peptide
T7 construct: Src(1-530)
How it was run: as §1

JNK2α2(h) = JNK2α2(h) (Homo sapiens, UniProt P45984); conditions: 100 μM peptide
How it was run: as §1

MAPKAP-K3(h) = MAPKAP-K3(h) (Homo sapiens, UniProt Q16644); conditions: for MAPKAP-K3(h) % activity: 100 μM peptide
Sequence of MAPKAP-K3(h) (Q16644 whole entry): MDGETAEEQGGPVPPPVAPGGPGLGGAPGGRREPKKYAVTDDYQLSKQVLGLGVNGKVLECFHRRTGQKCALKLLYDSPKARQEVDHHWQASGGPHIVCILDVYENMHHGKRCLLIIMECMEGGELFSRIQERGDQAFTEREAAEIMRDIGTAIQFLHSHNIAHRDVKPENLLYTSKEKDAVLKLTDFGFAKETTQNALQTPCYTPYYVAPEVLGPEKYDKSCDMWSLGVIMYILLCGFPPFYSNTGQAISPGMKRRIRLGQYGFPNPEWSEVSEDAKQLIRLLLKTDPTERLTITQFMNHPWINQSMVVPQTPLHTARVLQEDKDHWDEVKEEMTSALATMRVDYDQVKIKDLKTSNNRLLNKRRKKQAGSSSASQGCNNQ
How it was run: as §1

Compound	TSSK2(h) % activity (TSSK2(h)) [%]	PDGFRα(h) % activity (PDGFRα(h)) [%]	PRAK(h) % activity (PRAK(h)) [%]	TrkB(h) % activity (TrkB(h)) [%]	PKCμ(h) % activity (PKCμ(h)) [%]	cSRC(h) % activity (cSRC(h)) [%]	IRR(h) % activity (IRR(h)) [%]	FGFR1(V561M)(h) % activity (FGFR1(V561M)(h)) [%]	ZIPK(h) % activity (ZIPK(h)) [%]	PAK2(h) % activity (PAK2(h)) [%]	PKCβII(h) % activity (PKCβII(h)) [%]	Ros(h) % activity (Ros(h)) [%]	FGFR2(h) % activity (FGFR2(h)) [%]	ROCK-I(h) % activity (ROCK-I(h)) [%]	CSK(h) % activity (CSK(h)) [%]	Src(1-530)(h) % activity (Src(1-530)(h)) [%]	JNK2α2(h) % activity (JNK2α2(h)) [%]	MAPKAP-K3(h) % activity (MAPKAP-K3(h)) [%]	inhibition at 100 µM (TrkB(h); read-out: inhibition of kinase activity of TrkB) [%]	inhibition at 100 µM (MAPKAP-K3(h); read-out: inhibition of kinase activity of MK3) [%]
KAFAKLAARLYRKALARQLGVAA [MMI-0400]	94	40	118	8	14	14	8	74	13	59	75	99	18	73	16	19	96	7	–	–
CC(C)C[C@H](NC(=O)[C@H](C)NC(=O)[C@H](CCCCN)NC(=O)[C@H](C)NC(=O)[C@H](CCCNC(=N)N)NC(=O)[C@H](C)NC(=O)[C@H](CCC(N)=O)NC(=O)[C@H](CCCNC(=N)N)NC(=O)[C@H](C)NC(=O)[C@H](C)NC(=O)[C@H](C)NC(=O)[C@H](CCCNC(=N)N)NC(=O)[C@H](C)NC(=O)[C@@H](N)Cc1ccc(O)cc1)C(=O)N[C@@H](C)C(=O)N[C@@H](CCCNC(=N)N)C(=O)N[C@@H](CCC(N)=O)C(=O)N[C@@H](CC(C)C)C(=O)NCC(=O)N[C@H](C(=O)N[C@@H](C)C(=O)N[C@@H](C)C(=O)O)C(C)C [MMI-0100] (H-YARAAARQARAKALARQLGVAA-OH; N-terminus and C-terminus assumed)	–	–	–	–	–	–	–	–	–	–	–	–	–	–	–	–	–	–	> 65	> 65
YARAAARQARAKALNRQLGVA (Mammalian) [MMI-0200]	91	108	–	7	73	32	69	72	67	69	100	86	73	–	33	75	–	39	–	–
FAKLAARLYRKALARQLGVAA [MMI-0300]	98	65	128	5	22	26	8	74	28	65	82	95	14	79	49	23	98	3	–	–
HRRIKAWLKKIKALARQLGVAA (Mammalian) [MMI-0500]	92	40	95	12	10	30	10	–	1	44	3	150	12	17	2	21	81	9	–	–
